B1: library; numbered along this chain (parent)
chain: MAAAAAAAAEQQSSNGPVKKSMREKAVERRSVNKEHNSNFKAGYIPIDEDRLHKTGLRGRKGNLAICVIILLFILAVINLIITLVIWAVIRIGPNGCDSMEFHESGLLRFKQVSDMGVIHPLYKSTVGGRRNENLVITGNNQPIVFQQGTTKLSVENNKTSITSDIGMQFFDPRTQNILFSTDYETHEFHLPSGVKSLNVQKASTERITSNATSDLNIKVDGRAIVRGNEGVFIMGKTIEFHMGGNMELKAENSIILNGSVMVSTTRLPSSSSGDQLGSGDWVRYKLCMCADGTLFKVQVTSQNMGCQISDNPCGNTH

Variants of: B1
Assay: SGCB cell-surface expression functional score (HA stain, bin4 vs bin1, normalised to synonymous) (log10 ratio); higher = more cell-surface SGCB (functional)
In short: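 Using lentivirus at MOI <0.1, HA-tagged, YFP-fused human beta-sarcoglycan codon-saturation libraries were put into HEK293 cells with stable alpha-, gamma- and delta-sarcoglycan expression, in duplicate transductions. YFP-positive cells were collected by sorting 72 hours later, grown 5–7 days, stained on ice with Alexa Fluor 647 anti-HA, fixed, sorted into four 5% intensity bins and amplicon-sequenced. The functional score takes the median, across codons and transductions, of the log ratio of highest-bin to lowest-bin variant frequency. Within each section, synonymous variants were scaled to mean 0, SD 0.5.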

SGCB cell-surface expression functional score (log10): each site, then its substitutions
D292: C 0.07 | I 0.06 | W -2.02 | Q -1.17 | G -0.42 | T -0.67 | K -0.24 | V -0.08 | A -0.14 | R -1.29 | P -0.16 | L 0.07 | E 0.1 | H -0.19 | M 0.17 | Y -0.33 | S -0.12 | N -0.13 | F -0.23
M289: Y 0.01 | W -1.6 | F -1.2 | V -0.24 | P -1.06 | D -0.92 | I 0.1 | K -0.23 | E 0.05 | A -1 | S -0.79 | N 0.11 | H -0.85 | T -0.81 | C -0.54 | L -0.19 | R -0.22 | G -1.37 | Q -1.35
G293: I -0.08 | S -0.48 | L -0.36 | K -0.71 | R -0.02 | T 0.13 | M -0.11 | H 0.14 | F -0.08 | Y -0.17 | Q 0.3 | N 0.21 | E 0.05 | V -0.73 | W -0.35 | C 0.03 | A -0.12 | D 0.2 | P -0.23
R284: E -1.26 | I -0.39 | V -1.16 | D -1.55 | F -0.51 | Q 0.05 | N -2.05 | W 0.31 | L -0.57 | A 0.33 | S -0.16 | C 0.03 | K -0.73 | H 0.16 | T -0.97 | Y 0.27 | M 0.28 | P -0.73 | G -0.11
Y285: L -0.66 | C -0.68 | K -0.76 | Q -0.54 | T -1.86 | M -2.09 | D -0.09 | N -0.74 | H -0.04 | I -1.22 | G -0.29 | P -0.24 | W 0.09 | S -0.49 | R -1.05 | F -0.2 | E -2.12 | V -0.66 | A -0.68
V283: K 0.04 | D -0.63 | R -0.21 | C 0.36 | N 0.35 | G 0.12 | I 0.38 | P -0.19 | S -0.34 | F -0.17 | M 0.74 | Q -0.56 | H -0.24 | E 0.19 | L 0.37 | W -1.26 | A -0.15 | Y -0.55 | T -0.38
K286: T -1.08 | D -1.17 | I -0.67 | E -0.77 | R -1 | P 0.02 | L -0.42 | C -1.06 | F -0.07 | S -1.02 | V 0.03 | G -0.81 | N -0.03 | Q -0.61 | M 0.29 | W -0.09 | A -0.54 | H -1.12 | Y -0.08
A291: D -0.71 | S -0.06 | C -0.42 | K -0.46 | V -0.85 | I -0.64 | E -0.98 | G -0.19 | T 0.17 | N 0.17 | M -2.2 | L -0.71 | P 0.02 | Q -0.72 | H -0.89 | R 0.01 | Y 0.25 | W -1.18 | F 0.25
W282: S -0.06 | H 0.22 | Q 0.08 | Y -0.08 | N 0.08 | M -0.29 | D -0.17 | V 0.04 | T -0.1 | G 0.21 | R 0.12 | F 0.36 | E -0.07 | I 0.19 | A 0.11 | L 0.08 | K -0.08 | C -0.37 | P 0.15
C290: W 0.07 | I 0.02 | E 0.01 | A -0.08 | Q -0.2 | H -0.47 | P -1.32 | S -0.53 | N -0.11 | L -0.51 | F -0.75 | R -0.56 | Y -0.57 | V -0.97 | T -0.17 | D 0.2 | M -0.16 | K -0.15 | G -0.08
L295: C -0.2 | T 0.03 | I 0.11 | M -0.78 | F -0.18 | R -0.52 | Q -0.13 | A -0.91 | G -0.87 | S -0.42 | W -1.84 | P -0.13 | K -0.07 | E -0.95 | D -1.13 | Y -0.02 | V -0.12 | H -0.62 | N -1.17
Q299: C -1.36 | A 0.08
V298: P -0.53 | G -0.37 | A -0.24 | Q -1.06 | F -1.04 | K 0.19 | D -0.58 | H -0.85 | T -0.74 | W 0.29 | Y -1.36 | N -0.06 | S -0.15 | M 0.21 | C 0.01 | E 0.17 | I 0.1 | L -0.21 | R -0.21
F296: V -0.33 | H -0.39 | E -1.06 | R -0.46 | S -0.26 | C -0.18 | D -0.42 | Q -0.65 | Y 0.25 | L -0.05 | T -0.42 | G -0.62 | A -0.24 | W 0.16 | I 0.21 | M -0.13 | P -0.5 | N -0.63 | K -1.28
L287: E -0.2 | I 0.07 | K -0.59 | S -1.02 | P 0.16 | D -0.88 | Y -0.22 | F -0.14 | V -0.04 | H -0.31 | R -1.38 | W -1.34 | N -2.02 | A -0.96 | C 0.06 | M -2.09 | Q -1.3 | T -0.72 | G -0.84
C288: K -1.15 | N -0.51 | L -0.83 | A -0.03 | S -0.07 | D 0.01 | M -1.54 | W -0.68 | G -0.27 | P -0.81 | E 0.01 | Y -0.01 | V -0.72 | F -0.71 | R -0.93 | H -1 | T -0.27 | Q -0.16 | I -0.55
K297: M 0.17 | L -0.43 | W -1.48 | T -0.16 | I -0.54 | H -0.02 | E 0.15 | A -0.41 | Y -0.13 | S -0.17 | P 0.02 | N 0.46 | F -0.47 | V -0.02 | C -0.07 | Q -0.3 | R 0.25 | D 0.03 | G -0.21
D281: S -0.22 | T -0.28 | V -0.16 | W -1.51 | R -0.24 | Q 0.18 | Y 0.16 | P -0.06 | N 0.25
T294: F 0.01 | D 0.14 | P 0.04 | R -0.13 | W 0.57 | Y -0.33 | M 0.19 | K -0.03 | A 0.08 | L 0.29 | I -0.04 | V 0.14 | N 0.12 | Q 0.06 | C -0.97 | H -0.74 | S 0.17 | E -0.33 | G 0.5

Source: the supplement of paper PMC10266784
